In publication PMC2955986 (Journal of thrombosis and haemostasis : JTH, 2010):
Values belong to the molecule of their own block, whether it stands above or below them.

Legend:
TFPI (Homo sapiens) = TFPI (Homo sapiens) (UniProt P10646); details: cited from earlier work
[1] = molecular target: T1, Zn^2+-containing protein S (immunoaffinity-purified) (UniProt P07225 42-676); assay: fluid phase binding assay
T1 sequence (looked up): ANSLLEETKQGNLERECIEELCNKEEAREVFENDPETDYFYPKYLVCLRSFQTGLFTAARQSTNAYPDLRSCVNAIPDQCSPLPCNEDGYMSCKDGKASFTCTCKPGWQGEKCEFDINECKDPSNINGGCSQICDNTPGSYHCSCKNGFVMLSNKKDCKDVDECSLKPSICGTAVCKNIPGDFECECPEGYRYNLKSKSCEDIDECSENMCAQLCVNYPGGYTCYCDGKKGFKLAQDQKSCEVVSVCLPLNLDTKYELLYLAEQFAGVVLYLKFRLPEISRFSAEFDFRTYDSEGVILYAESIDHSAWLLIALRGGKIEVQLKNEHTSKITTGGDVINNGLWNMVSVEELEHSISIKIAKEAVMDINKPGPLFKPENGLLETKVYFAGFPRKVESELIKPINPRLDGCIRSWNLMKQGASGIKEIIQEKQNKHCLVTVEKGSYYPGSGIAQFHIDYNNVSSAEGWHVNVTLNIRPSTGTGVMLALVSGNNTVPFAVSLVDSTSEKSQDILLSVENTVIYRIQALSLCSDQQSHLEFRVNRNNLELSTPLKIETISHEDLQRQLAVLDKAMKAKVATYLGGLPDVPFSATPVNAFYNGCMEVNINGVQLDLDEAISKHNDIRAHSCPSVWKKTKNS

[2] = molecular target: Soluble tissue factor (residues 1-218); assay: fluid phase binding assay
Factor X [3] = assay: fluid phase binding assay
[4] = molecular target: Soluble tissue factor (residues 1-218); assay: fluid phase binding assay; remark: listed apart in the source
[5] = molecular target: Soluble tissue factor (residues 1-218); assay: ELISA
factor X [6] = molecular target: T2, factor X (Homo sapiens, UniProt P00742)
T2 chain: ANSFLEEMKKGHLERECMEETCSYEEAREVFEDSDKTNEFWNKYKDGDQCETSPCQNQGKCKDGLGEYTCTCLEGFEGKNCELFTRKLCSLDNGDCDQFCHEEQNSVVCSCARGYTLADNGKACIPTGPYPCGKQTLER

Sequence of TFPI (Homo sapiens) (P10646 29-304): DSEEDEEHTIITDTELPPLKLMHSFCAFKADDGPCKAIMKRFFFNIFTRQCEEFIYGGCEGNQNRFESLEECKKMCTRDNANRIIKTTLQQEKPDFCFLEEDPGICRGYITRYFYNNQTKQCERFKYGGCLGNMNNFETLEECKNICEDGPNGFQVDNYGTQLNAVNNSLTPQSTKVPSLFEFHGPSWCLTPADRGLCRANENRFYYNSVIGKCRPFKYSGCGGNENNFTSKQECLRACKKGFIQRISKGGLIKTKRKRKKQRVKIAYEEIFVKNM

Molecule: protein S (from UniProt P07225)
Kd (TFPI (Homo sapiens)): 21 nM

B1: Full length nonlipidated tissue factor (natural protein, UniProt P13726 33-295, looked up)
chain: SGTTNTVAAYNLTWKSTNFKTILEWEPKPVNQVYTVQISTKSGDWKSKCFYTTDTECDLTDEIVKDVKQTYLARVFSYPAGNVESTGSAGEPLYENSPEFTPYLETNLGQPTIQSFEQVGTKVNVTVEDERTLVRRNNTFLSLRDVFGKDLIYTLYYWKSSSSGKKTAKTNTNEFLIDVDKGENYCFSVQAVIPSRTVNRKSTDSPVECMGQEKGEFREIFYIIGAVVFVVIILVIILAISLHKCRKAGVGQSWKENSPLNVS
Kd [1]: 41 nM

Next, values leading:

Kd [2]: 41 nM | Kd (Factor X [3]): 127 nM | Kd [4]: 41 nM
B2: Zn^2+-containing protein S (immunoaffinity-purified) (natural protein)
chain: T1 sequence (looked up)

Kd [5]: 39 nM
B3: Zn^2+-reconstituted commercial protein S (natural protein)
chain: T1 sequence (looked up)

Kd (factor X [6]): ~130 nM
B4: protein S (protein)
chain: T1 sequence (looked up)
modifications: Zn2+-containing
